Experimental data taken from PMC5612953, “Stable MOB1 interaction with Hippo/MST is not essential for development and tissue growth control” (Nature Communications, 2017).
Substitutions are numbered along the chain they refer to. Names and notes keep the numbering of the source.

T1: phospho-MOB1(K104E/K105E), full length, recombinant (human, UniProt Q9H8S9 1-216, K104E | K105E, phosphorylated in vitro by MST2 (residues 2-308); the paper names Thr12 and Thr35 as the MST1/2 phosphorylation sites of MOB1)
T1 sequence: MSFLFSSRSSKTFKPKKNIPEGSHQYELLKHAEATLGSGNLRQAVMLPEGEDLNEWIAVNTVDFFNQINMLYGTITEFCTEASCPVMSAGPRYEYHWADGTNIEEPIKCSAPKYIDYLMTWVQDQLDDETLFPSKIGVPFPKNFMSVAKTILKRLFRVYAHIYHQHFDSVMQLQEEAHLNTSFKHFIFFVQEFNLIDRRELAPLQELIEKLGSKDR

T2: LATS1 (640-703, V647Y) (human, UniProt O95835 640-703, V647Y)
T2 sequence: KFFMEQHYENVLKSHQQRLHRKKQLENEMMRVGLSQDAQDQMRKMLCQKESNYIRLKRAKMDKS

T3: human NDR2 (residues 25-88), N-terminal regulatory domain (NTR) (human, UniProt Q9Y2H1 25-88)
T3 chain: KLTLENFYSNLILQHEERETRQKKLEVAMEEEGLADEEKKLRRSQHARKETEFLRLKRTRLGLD

T4: human NDR1 (residues 24-87), NTR (human, UniProt Q15208 24-87)
T4 chain: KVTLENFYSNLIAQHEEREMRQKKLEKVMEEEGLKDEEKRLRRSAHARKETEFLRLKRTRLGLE

T5: LATS2 (603-666, V610Y) (human, UniProt Q9NRM7 603-666, V610Y)
T5 sequence: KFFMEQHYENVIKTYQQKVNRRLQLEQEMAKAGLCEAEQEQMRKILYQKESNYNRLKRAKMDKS

T6: unphosphorylated full-length MOB1A(K104E/K105E), recombinant (human, UniProt Q9H8S9 1-216, K104E | K105E)
T6 sequence: T1 sequence

T7: unphosphorylated full-length MOB1A(K104E/K105E), recombinant (human, UniProt Q9H8S9 1-216, K104E | K105E)
T7 construct: human MOB1A, full length; also called Unphosphorylated MOB1(K104E/K105E); MOB1(K104E/K104E); source: E. coli, purified as MOB1A (33-216) (Ni-NTA)
T7 sequence (looked up): T1 sequence

T8: phospho-MOB1(K104E/K105E), full length, recombinant (human, UniProt Q9H8S9 1-216, K104E | K105E, phosphorylated in vitro by MST2 (residues 2-308); the paper names Thr12 and Thr35 as the MST1/2 phosphorylation sites of MOB1)
T8 construct: human MOB1A, full length; source: E. coli, purified (Ni-NTA), then phosphorylated in vitro by MST2 (2-308)
T8 sequence (looked up): T1 sequence

T9: non-phosphorylated full-length MOB1A wild-type (human, UniProt Q9H8S9 1-216)
T9 construct: human MOB1A, full length; pET28a vector; also called unphosphorylated full-length MOB1; non-phosphorylated MOB1; source: E. coli, purified as MOB1A (33-216) (Ni-NTA)
T9 sequence (looked up): T1 sequence with E104K, E105K

B1: NDR1 (24-87, Y31V) (domain or fragment)
chain: T4 chain with Y8V
B2: non-phosphorylated full-length MOB1A wild-type (natural protein)
chain: T1 sequence with E104K, E105K
B3: NDR2 (25-88, Y32V) (domain or fragment)
chain: T3 chain with Y8V
B4: LATS1 (640-703, V647Y) (domain or fragment, human, UniProt O95835 640-703, looked up)
chain: T2 sequence
notes: human LATS1, residues 640-703 (NTR); also called LATS1(V647Y); source: E. coli BL21(DE3), purified (Ni-NTA)
B5: human LATS1 (residues 640-703), NTR (domain or fragment, UniProt O95835 640-703, looked up)
chain: T2 sequence with Y8V
notes: human LATS1, residues 640-703 (NTR); also called LATS1 (640-703); LATS1 wild-type; source: E. coli BL21(DE3), purified (Ni-NTA)
B6: human LATS2 (residues 603-666), NTR (domain or fragment, UniProt Q9NRM7 603-666, looked up)
chain: T5 sequence with Y8V
notes: human LATS2, residues 603-666 (NTR), codon-optimized synthetic gene; also called NTR of LATS2; source: E. coli BL21(DE3), purified (Ni-NTA)
B7: human NDR1 (residues 24-87), NTR (domain or fragment, UniProt Q15208 24-87, looked up)
chain: T4 chain
notes: human NDR1, residues 24-87 (NTR); also called NTR of NDR1; source: E. coli BL21(DE3), purified (Ni-NTA)
B8: LATS2 (603-666, V610Y) (domain or fragment, human, UniProt Q9NRM7 603-666, looked up)
chain: T5 sequence
notes: human LATS2, residues 603-666 (NTR), codon-optimized synthetic gene; also called LATS2(V610Y); source: E. coli BL21(DE3), purified (Ni-NTA)

How the values were obtained:
[1] = molecular target: T1, phospho-MOB1(K104E/K105E), full length, …; assay: ITC; phosphorylated MOB1
LATS1 (640-703, V647Y) = molecular target: T2, LATS1 (640-703, V647Y); assay: ITC
[2] = molecular target: T3, human NDR2 (residues 25-88), N-terminal …; assay: ITC
[3] = molecular target: T4, human NDR1 (residues 24-87), NTR; assay: ITC
LATS2 (603-666, V610Y) = molecular target: T5, LATS2 (603-666, V610Y); assay: ITC
[4] = molecular target: T6, unphosphorylated full-length …; assay: ITC
[5] = molecular target: T7, unphosphorylated full-length …; assay: ITC; 25 °C, ITC200; 25 mM HEPES pH 7.5, 200 mM NaCl, 1 mM EDTA; ~240 μM MOB1A injected (20 x 2 μl) into ~24 μM NDR1, NDR2, LATS1 or LATS2 fragment in the cell; single-site model; details: both partners purified
[6] = molecular target: T8, phospho-MOB1(K104E/K105E), full length, …; assay: as above; details: both partners purified
[7] = molecular target: T9, non-phosphorylated full-length MOB1A …; assay: as above; details: both partners purified

Kd [1] | Kd [4] | binding result [5] | binding result [6] | binding result [7] | other results | Binder
2.34 µM | – | – | – | – | – | B1
– | – | – | – | – | Kd (LATS1 (640-703, V647Y)): 16.9 µM; Kd [2]: 12.3 µM; Kd [3]: 8.06 µM; Kd (LATS2 (603-666, V610Y)): 11.5 µM | B2
8.7 µM | – | – | – | – | – | B3
3.83 µM | 14.1 µM | binds | binds | binds | – | B4
16.2 µM | – | – | binds | – | – | B5
8.4 µM | – | – | binds | – | – | B6
0.124 µM | 7.94 µM | binds | binds | binds | – | B7
1.3 µM | 12.2 µM | binds | binds | binds | – | B8
